For data set [1], the target named is T1, FUBP1 KH2 (UniProt Q96AE4 185-251). Put plainly: EMSA; ITC: 25 mM HEPES pH 7.5, 50 mM NaCl (150 mM for tandem and KH1-4), 0.5 mM TCEP, 20 C; native PAGE: 200 uM protein, 5x ssDNA, 25 mM HEPES pH 7.5, 50 mM NaCl, 0.5 mM TCEP, 4 C, 0.5x TBE (KH4 0.5x TAE). As to conditions: protein: recombinant; tags: His6 removed by TEV. In general terms: Mobility shift assays separate free from complexed probe on a gel.

The target of data set [2] is T2, FUBP1 KH4 (UniProt Q96AE4 376-443). Described as above. The note with it: protein: recombinant; tags: N-terminal His6 kept in native PAGE; removed by TEV in general protocol.
T2 sequence (Q96AE4 376-443): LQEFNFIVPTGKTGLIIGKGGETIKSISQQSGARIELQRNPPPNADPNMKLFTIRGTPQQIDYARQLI
The target of data set [3] is T3, FUBP1 KH3 (UniProt Q96AE4 275-339). Described as above. The note with it: protein: recombinant; tags: His6 removed by TEV.
T3 sequence (Q96AE4 275-339): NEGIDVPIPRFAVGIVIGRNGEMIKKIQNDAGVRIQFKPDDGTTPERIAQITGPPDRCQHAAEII
Data set [4] concerns the target T4, FUBP1 KH1 (UniProt Q96AE4 100-164). Described as above. As to conditions: protein: recombinant; tags: His6 removed by TEV.
Data set [5] has as its target FUBP1 KH1-4 (UniProt Q96AE4 100-443). Put plainly: ITC; 150 mM NaCl; ITC: 25 mM HEPES pH 7.5, 50 mM NaCl (150 mM for tandem and KH1-4), 0.5 mM TCEP, 20 C; native PAGE: 200 uM protein, 5x ssDNA, 25 mM HEPES pH 7.5, 50 mM NaCl, 0.5 mM TCEP, 4 C, 0.5x TBE (KH4 0.5x TAE). As to conditions: protein: recombinant; tags: His6 removed by TEV. Background: ITC needs no label: the signal is the heat of the interaction.

For data set [6], the target named is FUBP1 KH2-3 (UniProt Q96AE4 185-339). Put plainly: ITC; 150 mM NaCl; range given for the three tandems; ITC: 25 mM HEPES pH 7.5, 50 mM NaCl (150 mM for tandem and KH1-4), 0.5 mM TCEP, 20 C; native PAGE: 200 uM protein, 5x ssDNA, 25 mM HEPES pH 7.5, 50 mM NaCl, 0.5 mM TCEP, 4 C, 0.5x TBE (KH4 0.5x TAE). As to conditions: protein: recombinant; tags: His6 removed by TEV.
Sequence of FUBP1 KH2-3 (Q96AE4 185-339): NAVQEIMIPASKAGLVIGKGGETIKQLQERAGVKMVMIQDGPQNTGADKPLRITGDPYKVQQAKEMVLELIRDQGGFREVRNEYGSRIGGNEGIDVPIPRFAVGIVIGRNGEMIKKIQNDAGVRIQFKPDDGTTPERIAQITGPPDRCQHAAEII

Data set [7] concerns the target FUBP1 KH3-4 (UniProt Q96AE4 275-443). The data set is described as above. The note with it: protein: recombinant; tags: His6 removed by TEV.
For data set [8], the target named is FUBP1 KH1-2 (UniProt Q96AE4 100-251). Described as above. As to conditions: protein: recombinant; tags: His6 removed by TEV.
Sequence of FUBP1 KH1-2 (Q96AE4 100-251): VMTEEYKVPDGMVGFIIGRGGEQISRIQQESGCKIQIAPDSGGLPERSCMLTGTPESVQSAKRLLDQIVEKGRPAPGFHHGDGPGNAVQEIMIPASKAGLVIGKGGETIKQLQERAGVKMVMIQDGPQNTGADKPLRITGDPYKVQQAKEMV
The target of data set [9] is T1, FUBP1 KH2. As to the kind of experiment: ITC; 50 mM NaCl; Kd only in Fig 3C; ITC: 25 mM HEPES pH 7.5, 50 mM NaCl (150 mM for tandem and KH1-4), 0.5 mM TCEP, 20 C; native PAGE: 200 uM protein, 5x ssDNA, 25 mM HEPES pH 7.5, 50 mM NaCl, 0.5 mM TCEP, 4 C, 0.5x TBE (KH4 0.5x TAE). The note with it: protein: recombinant; tags: His6 removed by TEV.
Data set [10] has as its target T4, FUBP1 KH1. The data set is described as above. As to conditions: protein: recombinant; tags: His6 removed by TEV.
The target in data set [11] is T2, FUBP1 KH4. The data set is described as above. The note with it: protein: recombinant; tags: N-terminal His6 kept in native PAGE; removed by TEV in general protocol.
Data set [12] deals with T3, FUBP1 KH3. Put plainly: ITC; 50 mM NaCl; ITC: 25 mM HEPES pH 7.5, 50 mM NaCl (150 mM for tandem and KH1-4), 0.5 mM TCEP, 20 C; native PAGE: 200 uM protein, 5x ssDNA, 25 mM HEPES pH 7.5, 50 mM NaCl, 0.5 mM TCEP, 4 C, 0.5x TBE (KH4 0.5x TAE). As to conditions: protein: recombinant; tags: His6 removed by TEV.
Data set [13] addresses T1, FUBP1 KH2. Put plainly: ITC; 50 mM NaCl; preferred over fragment 8; ITC: 25 mM HEPES pH 7.5, 50 mM NaCl (150 mM for tandem and KH1-4), 0.5 mM TCEP, 20 C; native PAGE: 200 uM protein, 5x ssDNA, 25 mM HEPES pH 7.5, 50 mM NaCl, 0.5 mM TCEP, 4 C, 0.5x TBE (KH4 0.5x TAE). The note with it: protein: recombinant; tags: His6 removed by TEV.
In data set [14] the target is T2, FUBP1 KH4. As to the kind of experiment: ITC; 50 mM NaCl; no preference between fragments 7 and 8; ITC: 25 mM HEPES pH 7.5, 50 mM NaCl (150 mM for tandem and KH1-4), 0.5 mM TCEP, 20 C; native PAGE: 200 uM protein, 5x ssDNA, 25 mM HEPES pH 7.5, 50 mM NaCl, 0.5 mM TCEP, 4 C, 0.5x TBE (KH4 0.5x TAE). The note with it: protein: recombinant; tags: N-terminal His6 kept in native PAGE; removed by TEV in general protocol.

T1 sequence (Q96AE4 185-251): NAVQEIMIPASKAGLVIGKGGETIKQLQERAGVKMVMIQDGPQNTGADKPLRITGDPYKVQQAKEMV
T4 sequence (Q96AE4 100-164): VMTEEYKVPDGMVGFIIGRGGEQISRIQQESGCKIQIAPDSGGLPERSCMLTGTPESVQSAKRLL
Sequence of FUBP1 KH1-4 (Q96AE4 100-443): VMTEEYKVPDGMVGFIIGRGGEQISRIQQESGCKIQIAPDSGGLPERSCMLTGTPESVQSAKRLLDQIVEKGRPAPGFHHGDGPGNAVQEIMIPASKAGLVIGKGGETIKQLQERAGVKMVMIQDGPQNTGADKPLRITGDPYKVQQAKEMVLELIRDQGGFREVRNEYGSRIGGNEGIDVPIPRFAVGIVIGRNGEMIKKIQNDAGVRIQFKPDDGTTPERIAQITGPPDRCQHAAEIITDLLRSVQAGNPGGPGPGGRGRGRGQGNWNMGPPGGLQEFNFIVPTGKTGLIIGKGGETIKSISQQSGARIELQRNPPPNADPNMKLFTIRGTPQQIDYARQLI
Sequence of FUBP1 KH3-4 (Q96AE4 275-443): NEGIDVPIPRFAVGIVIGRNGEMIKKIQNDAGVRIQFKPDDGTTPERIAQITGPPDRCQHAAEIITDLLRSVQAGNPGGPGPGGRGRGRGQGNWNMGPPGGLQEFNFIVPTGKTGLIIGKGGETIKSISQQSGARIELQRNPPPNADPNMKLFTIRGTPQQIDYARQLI

B1: FUSE fragment 4, 10-mer (ssDNA)
DNA: CCCTCGGGAA
Take B1: the binding result in data set [1] and in data set [2] was “no binding” in each case.

B2: FUSE fragment 8, 10-mer (native PAGE) (ssDNA)
DNA: TTTGTGTTAA
Take B2: the binding result in [3] and in [4] was “binds” in each case.

B3: 47-mer c-Myc FUSE (ssDNA)
DNA: ATGTATATTCCCTCGGGATTTTTTATTTTGTGTTATTCCACGGCATG
Regarding B3, the dissociation constant Kd in data set [5] was about 85 nM; in data set [6], about 5.29 µM; in [7], about 5.29 µM; in data set [8], about 5.29 µM.

B4: FUSE fragment 10, 10-mer (ssDNA)
DNA: TTCCACGGAA
As for B4, the binding result in data set [1] and in [2] was “no binding” each time.

B5: FUSE fragment 8, 8-mer (ITC) (ssDNA)
DNA: TTGTGTTA
For B5, the binding signal in data set [9], in data set [10] and in data set [11] was > 5 fold weaker than KH3 (at least) in each case. Also, in data set [12], the Kd is 17 µM.

B6: FUSE fragment 7, 8-mer (ITC) (ssDNA)
DNA: TATTTTGT
As to B6, the binding result in data set [13] and in data set [14] was “binds” throughout.

As usually defined, the Kd is the free concentration of one partner at which half of the binding sites on the other are occupied at equilibrium, for simple one-to-one binding.

These data come from paper PMC7417555, “Comparative structural analyses and nucleotide-binding characterization of the four KH domains of FUBP1”.
